Results on 70 substances are retold here after patent US20170002055A1, “Novel peptides and combination of peptides for use in immunotherapy against ovarian cancer and other cancers” (immatics biotechnologies GmbH, priority 2015, published 2017).

This assay concerns the target HLA-A*02:01 (Homo sapiens, UniProt P04439, D140Y/D185E/D98H/E176V/E277Q/G131W/G231S/I119V/I121R/I166T/I218V/L300P/L318F/N151K/N90K/P208A/P217A/Q86G/Q94H/R138H/R169H/T345S). In words: MHC binding assay (UV-ligand exchange, β2m ELISA, peptide exchange yield). The conditions noted are these: MHC class I binding score; binding to HLA-A*02:01 ranged by peptide exchange yield (UV-ligand exchange, β2m ELISA). Put shortly: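 Binding is expressed as peptide exchange yield: stabilized MHC complexes were quantified by β2m ELISA, with a 450 nm TMB read-out on streptavidin-coated plates. Complexes came from UV-ligand exchange, where UV irradiation cleaves a photolabile peptide so the candidate peptide can load.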
In general terms: ELISA stands for enzyme-linked immunosorbent assay.
Regarding “491 (GLNDRSDAV; listed as Homo sapiens) [compound 491]”, the Peptide exchange result is recorded as ““++” (≧20% = ++)”.

“492 (SLFDGFADGLGV; listed as Homo sapiens) [compound 492]”: the Peptide exchange entry is recorded as ““+++” (≧50 = +++)”.

Regarding “493 (GLLGEKTQDLIGV; listed as Homo sapiens) [compound 493]”, the Peptide exchange entry is ““+++” (≧50 = +++)”.

As to “494 (ALQPEPIKV; listed as Homo sapiens) [compound 494]”, the Peptide exchange entry was ““++” (≧20% = ++)”.

Turning to “495 (FIFSEKPVFV; listed as Homo sapiens) [compound 495]”, the Peptide exchange entry is ““+++” (≧50 = +++)”.

Turning to “496 (FLVEKQPPQV; listed as Homo sapiens) [compound 496]”, the Peptide exchange result is ““+++” (≧50 = +++)”.

For the substance “497 (GLLEKLTAI; listed as Homo sapiens) [compound 497]”, the Peptide exchange entry was ““+++” (≧50 = +++)”.

With “498 (KLWTGGLDNTV; listed as Homo sapiens) [compound 498]”, the Peptide exchange entry is listed as ““+++” (≧50 = +++)”.

As to “500 (SLMEDQVLQL; listed as Homo sapiens) [compound 500]”, the Peptide exchange result was ““+++” (≧50 = +++)”.

As to “501 (LLDPNVKSIFV; listed as Homo sapiens) [compound 501]”, the Peptide exchange result was ““+++” (≧50 = +++)”.

For the substance “502 (RLLAQVPGL; listed as Homo sapiens) [compound 502]”, the Peptide exchange entry is recorded as ““+++” (≧50 = +++)”.

As to “503 (SLNHFTHSV; listed as Homo sapiens) [compound 503]”, the Peptide exchange result was ““+++” (≧50 = +++)”.

Regarding “504 (GLSDGNPSL; listed as Homo sapiens) [compound 504]”, the Peptide exchange entry is recorded as ““++” (≧20% = ++)”.

For “505 (SLAPGDVVRQV; listed as Homo sapiens) [compound 505]”, the Peptide exchange entry is reported as ““++” (≧20% = ++)”.

On to “506 (KLLGKVETA; listed as Homo sapiens) [compound 506]”, for which the Peptide exchange entry is on record as ““+++” (≧50 = +++)”.

Regarding “507 (KLIDDQDISISL; listed as Homo sapiens) [compound 507]”, the Peptide exchange entry is listed as ““+++” (≧50 = +++)”.

Take “508 (ILAQEQLVVGV; listed as Homo sapiens) [compound 508]”: the Peptide exchange result was ““+++” (≧50 = +++)”.

Consider “509 (FLFDTKPLIV; listed as Homo sapiens) [compound 509]”, for which the Peptide exchange result is recorded as ““+++” (≧50 = +++)”.

“510 (KLYSVVSQL; listed as Homo sapiens) [compound 510]”: the Peptide exchange entry is given as ““++” (≧20% = ++)”.

“512 (SLSEIVPCL; listed as Homo sapiens) [compound 512]”: the Peptide exchange entry is given as ““+++” (≧50 = +++)”.

As for “513 (SLWPSPEQL; listed as Homo sapiens) [compound 513]”, the Peptide exchange entry is reported as ““++” (≧20% = ++)”.

Turning to “514 (ILVDWLVQV; listed as Homo sapiens) [compound 514]”, the Peptide exchange result is ““+++” (≧50 = +++)”.

As for “515 (LLQELVLFL; listed as Homo sapiens) [compound 515]”, the Peptide exchange result is listed as ““+++” (≧50 = +++)”.

For the substance “516 (AVGPASILKEV; listed as Homo sapiens) [compound 516]”, the Peptide exchange result was ““++” (≧20% = ++)”.

With “517 (LLMPIPEGLTL; listed as Homo sapiens) [compound 517]”, the Peptide exchange entry is reported as ““+++” (≧50 = +++)”.

As for “519 (GLLHLTLLL; listed as Homo sapiens) [compound 519]”, the Peptide exchange entry was ““+++” (≧50 = +++)”.

Take “520 (LAVHPSGVAL; listed as Homo sapiens) [compound 520]”: the Peptide exchange result is listed as ““+” (≧10% = +)”.

Regarding “521 (MLLTKLPTI; listed as Homo sapiens) [compound 521]”, the Peptide exchange entry is on record as ““+++” (≧50 = +++)”.

As for “522 (TLWYRSPEV; listed as Homo sapiens) [compound 522]”, the Peptide exchange entry was ““++” (≧20% = ++)”.

As for “523 (YQIPRTFTL; listed as Homo sapiens) [compound 523]”, the Peptide exchange result is reported as ““++” (≧20% = ++)”.

Take “524 (ALIENLTHQI; listed as Homo sapiens) [compound 524]”: the Peptide exchange result is on record as ““++” (≧20% = ++)”.

Regarding “525 (VLLEAGEGLVTI; listed as Homo sapiens) [compound 525]”, the Peptide exchange entry is given as ““+++” (≧50 = +++)”.

With “526 (RLAEVGQYEQV; listed as Homo sapiens) [compound 526]”, the Peptide exchange entry was ““++” (≧20% = ++)”.

For the substance “527 (FLLEPGNLEV; listed as Homo sapiens) [compound 527]”, the Peptide exchange result is ““++++” (≧75% = ++++)”.

As to “528 (SVAEGRALMSV; listed as Homo sapiens) [compound 528]”, the Peptide exchange result is recorded as ““+++” (≧50 = +++)”.

Regarding “529 (LLADELITV; listed as Homo sapiens) [compound 529]”, the Peptide exchange entry is on record as ““+++” (≧50 = +++)”.

On to “530 (VMYADIGGMDI; listed as Homo sapiens) [compound 530]”, for which the Peptide exchange entry is recorded as ““+++” (≧50 = +++)”.

Turning to “531 (YTLPIASSIRL; listed as Homo sapiens) [compound 531]”, the Peptide exchange entry is given as ““+++” (≧50 = +++)”.

Consider “537 (TLAPGEVLRSV; listed as Homo sapiens) [compound 537]”, for which the Peptide exchange result was ““+++” (≧50 = +++)”.

For “538 (LLLAHIIAL; listed as Homo sapiens) [compound 538]”, the Peptide exchange entry is recorded as ““++” (≧20% = ++)”.

As to “539 (ALFDAQAQV; listed as Homo sapiens) [compound 539]”, the Peptide exchange result is ““+++” (≧50 = +++)”.

As to “541 (SMLEPVPEL; listed as Homo sapiens) [compound 541]”, the Peptide exchange result was ““+++” (≧50 = +++)”.

With “542 (RVWDISTVSSV; listed as Homo sapiens) [compound 542]”, the Peptide exchange entry was ““+++” (≧50 = +++)”.

Take “543 (GLLPTPITQQASL; listed as Homo sapiens) [compound 543]”: the Peptide exchange result is given as ““+++” (≧50 = +++)”.

In the case of “544 (LLWDVPAPSL; listed as Homo sapiens) [compound 544]”, the Peptide exchange result was ““+++” (≧50 = +++)”.

With “545 (LLADLLHNV; listed as Homo sapiens) [compound 545]”, the Peptide exchange result was ““+++” (≧50 = +++)”.

Consider “546 (VMIAGKVAVV; listed as Homo sapiens) [compound 546]”, for which the Peptide exchange result is ““+++” (≧50 = +++)”.

Regarding “547 (TLDITPHTV; listed as Homo sapiens) [compound 547]”, the Peptide exchange entry was ““+++” (≧50 = +++)”.

On to “548 (ALWENPESGEL; listed as Homo sapiens) [compound 548]”, for which the Peptide exchange entry is ““++” (≧20% = ++)”.

“549 (AMLENASDIKL; listed as Homo sapiens) [compound 549]”: the Peptide exchange entry is reported as ““+++” (≧50 = +++)”.

For “550 (FLYDEIEAEVNL; listed as Homo sapiens) [compound 550]”, the Peptide exchange result is reported as ““+++” (≧50 = +++)”.

For the substance “551 (KLYESLLPFA; listed as Homo sapiens) [compound 551]”, the Peptide exchange result is on record as ““+++” (≧50 = +++)”.

In the case of “552 (GLLDLPFRVGV; listed as Homo sapiens) [compound 552]”, the Peptide exchange result is reported as ““++++” (≧75% = ++++)”.

On to “553 (SLLNQDLHWSL; listed as Homo sapiens) [compound 553]”, for which the Peptide exchange result is listed as ““++++” (≧75% = ++++)”.

For the substance “554 (LLMPSSEDLLL; listed as Homo sapiens) [compound 554]”, the Peptide exchange result is reported as ““+++” (≧50 = +++)”.

As for “555 (YVLEGLKSV; listed as Homo sapiens) [compound 555]”, the Peptide exchange result is recorded as ““+++” (≧50 = +++)”.

“556 (FLTDLEDLTL; listed as Homo sapiens) [compound 556]”: the Peptide exchange entry is ““+++” (≧50 = +++)”.

Consider “557 (KLYDDMIRL; listed as Homo sapiens) [compound 557]”, for which the Peptide exchange result is ““+++” (≧50 = +++)”.

“558 (GLLENIPRV; listed as Homo sapiens) [compound 558]”: the Peptide exchange entry is ““+++” (≧50 = +++)”.

In the case of “559 (VTVPPGPSL; listed as Homo sapiens) [compound 559]”, the Peptide exchange entry was ““++” (≧20% = ++)”.

For “560 (ALWDIETGQQTTT; listed as Homo sapiens) [compound 560]”, the Peptide exchange result is reported as ““+++” (≧50 = +++)”.

As for “561 (YLQLTQSEL; listed as Homo sapiens) [compound 561]”, the Peptide exchange result is ““+++” (≧50 = +++)”.

As for “562 (YLEELPEKLKL; listed as Homo sapiens) [compound 562]”, the Peptide exchange entry was ““+++” (≧50 = +++)”.

As for “563 (WLLPYNGVTV; listed as Homo sapiens) [compound 563]”, the Peptide exchange entry is listed as ““+++” (≧50 = +++)”.

For the substance “564 (TVTNAVVTV; listed as Homo sapiens) [compound 564]”, the Peptide exchange result is on record as ““+++” (≧50 = +++)”.

For the substance “565 (ALQETPTSV; listed as Homo sapiens) [compound 565]”, the Peptide exchange entry was ““++” (≧20% = ++)”.

As to “566 (VIADGGIQNV; listed as Homo sapiens) [compound 566]”, the Peptide exchange result was ““++” (≧20% = ++)”.

As to “567 (SLLPLDDIVRV; listed as Homo sapiens) [compound 567]”, the Peptide exchange entry was ““+++” (≧50 = +++)”.

As to “568 (TLYDIAHTPGV; listed as Homo sapiens) [compound 568]”, the Peptide exchange result is given as ““++++” (≧75% = ++++)”.

“569 (KLVDRTWTL; listed as Homo sapiens) [compound 569]”: the Peptide exchange result is recorded as ““+++” (≧50 = +++)”.
